Experimental data published in a protein production outcome set (Wang et al. 2014).

Assay: label from the status in PepcDB records

| Sequence | protein production |
| --- | --- |
| MSTPSPALFFNTVNAYQRSAAIKAAVELNVFTAISQGIESSQSLAQKCQTSERGMRMLCDYLVIIGFMTKQAEGYRLTSDSAMFLDRQSKFYVGDAIEFLLSPMITNGFNDLTAAVLKGGTAISSEGTLSPEHPVWVQFAKAMSPMMANPAQLIAQLVNENKIEPLKVLDISASHGLFGIAVAQHNPNAEIFGVDWASVLEVAKENARIQGVASRYHTIAGSAFEVDYGNDYDLVLLPNFLHHFDVATCEQLLRKIKTALAVEGKVIVFDFIPNSDRITPPDAAAFSLVMLATTPNGDAYTFAEYESMFSNAGFSHSQLHSLPTTQQQVIVAYK | not failed |
| MTRLAFVRKKEKNCGQCRICEVSCPMGIETENAEKYKGECISCIKCVEICPRYNMQLNFANQPVNPRYTSSLTVAGLFAVFSALSFLPSAKKIDTAKYNAIPSFADEDYQTDEENENINSSDNKQVETQQDYQAEIAQNNSQEANTSQNQISDQAQENAMTSKYQQNQSAAESYNSTETNQKSANVQSKTFEQAAENSQKTSLEKSQGSVQNSTYPVSSSNSSDESQQENVQANLSNATETSTQNFKVSNNTSETPKGISKIYKDGTYTGEGFGYRPGLVVEVTIKDDKITKIKIVSHNETQSFAQLPFEIIPQEIIQNQSTNVDIVSGATRTSYGIIMAVEDALNKAKIENESSLQN | failed |
| MDELAGGGGGGQGMAAPPRPQQGPGGNLSLPPGANGAPGGGGPPAAEAAGPPAGPELSRPQQYTIPGILHYIQHEWARFEMERAHWEVERAELQARIAFLQGERKGQENLKKDLVRRIKMLEYALKQERAKYHKLKYGTELNQGDLKMPTFESEETKDVEAPPAPQNSQLTWKQGRQLLRQYLQEVGYTDTILDVRSQRVRSLLGLSNSEPNGSVEAKNLEQILNGGESPKQKGQEIKRPPGDVLETFNFLENADDSDEEENDMIEGIPEGKDKLRIHKHKIGNEGLAADLTDDPDTEEALKEFDFLVTAEDGEGAGEARSSGDGTEWDKDDLSPTAEVWDVDQGLISKLKEQYKKERKGKKGVKRVNRTNLCDMITDLGDDELPHIPSGIINQSRSASTRMADHEGARAEEAEPITFPSGGGKSFIMGSDDVLLSVLGLGDLADLTVTNDADYSYDLPANKDAFRKTWNPKYTLRSHFDGVRALAFHPVEPVLVTASEDHTLKLWNLQKTVPAKKSASLDVEPIYTFRAHIGPVLSLAISSNGEQCFSGGIDATIQWWNMPSPNVDPYDTYESNVLAGTLVAHTDAVWGLAYSGIKNQLLSCSADGTIRLWNPQEKLPCVCTYNGDKEHGIPTSVDFIGCDPAHMVTSFNTGSAVIYDLETSQSLVMLSSQVDSGLQSSNHINRVVSHPTLPVTITAHEDRHIKFFDNKTGKMIHSMVAHLDAVTSLAVDPNGIYLMSGSHDCSIRLWNLDSKTCVQEITAHRKKLDESIYDVAFHPSKAYIASAGADALAKVFV | failed |
| VSRDENSWLIDGATPLEEVTRVLDIAYFPDEENYETISGFMMYMLRKIPKKTDSVVYGKYKFEVIDTENFKIDQILVSLVKEQE | not failed |
| MDRIIEKLDHGWWVVSHEQKLWLPKGELPYGERANFDLVGQRALQIGEWQGEPVWLVQQQRRHDMGSVRQVIDLDVGLFQLAGRGVQLAEFYRSHKYCGYCGHEMYPSKTEWAMLCSHCRERYYPQIAPCIIVAIRRDDSILLAQHTRHRNGVHTVLAGFVEVGETLEQAVAREVMEESGIKVKNLRYVTSQPWPFPQSLMTAFMAEYDSGDIVIDPKELLEANWYRYDDLPLLPPPGTVARRLIEDTVAMCRAEYE | not failed |
| MLLQPSRVRSGGRARWHAVQCAAAVTIGRDHPRHRYTRAMSSPLSCRLGCAACCIAPSISSPIPGMPNGKPAGVACVQLDAQLGCRLFGSPLRPAVCGNLRPSLEMCGTSRKQALSMLAALERATQP | failed |
| MGRGRSSSSSSIESSSKSNPFGASSSTRNLSTDLRLGLSFGTSSGTQYFNGGYGYSVAAPAVEDAEYVAAVEEEEENECNSVGSFYVKVNMEGVPIGRKIDLMSLNGYRDLIRTLDFMFNASILWAEEEDMCNEKSHVLTYADKEGDWMMVGDVPWEMFLSTVRRLKISRANYHY | failed |
| KRFESPSVIKPNTLTNQQLIETCDQLIENAVKHHLVADVPVGLYLSGGIDSTLLLSKIRKLGHLNFPTFTIANSSREQAFGTRDFEFARLASKLYNSDHHEVSVHAEMLQDLPAFVSMIDQPIGDSALFLTHILSKEAGQHVRVALNGAGADELFAGYNRHSAYKSYLNNLLHKNLAITLIKSTYNILPDGGNHSLKKVFRLWNKFTGMMDVDPIKTCHNFSSSEYFIEKNTSIEVDDKSYEDLSYYLYYCLRNDRTKYLISDILALTDKMTMRSSIEARVPYLDQELRRFVESLDPSVLLKNGRKWILKEVLLRNGGETFLNRPKEGFGMPFGYWLKLPVNKNFVEKLTNKNHPIYEWVPYQTIKNLVDWHLGSKRDCSSELWSVLLLMHWYEKE | failed |
| MDPWDTYNIPLDHQHRLRNRRDHRHPSFSSTLLDQIYRSIDDSSTNSSSMRKTKHQNREDTRVSANRRDDFNRSKNLKTIEPVFFKHSSSSSSDSSGFSSSESDYFYRRSKSSPAISHPKPIRTTVERFERSPQNHRPNSSNKQEHGSFLKTKSKALKIYSDLKKVKQPISPGGRLATFLNSIFTGAGNTKKLNKINTTVTSTTAAAAAASSTTTCSSASSFSRSCLSKTPSSSEKSKRSVRFCPVNVIFDEDSSKYNNKNNKVYGNNEREYESIRHTLENRVMEENRRVIEAAKELLRSYQKKNKEVIEVSVEDDEEDDDDDALSCTSSDLFELDNLSAIGIDRYREELPVYETTRLNTNRIISR | failed |
| MEHKISEPNARVDVADVLRGLAVMGIIILHSIEHFNFYSFPDTVPCEWMKFTDKAIWNGLFFVFSNKAYAIFALLFGFSFYIQDNNQQRRGKDFRLRFIWRMALLFIIGQFNAAFFTGEILTMYAMLGLILPLSCRLSDRSIAIFATLLIIQPIDWCKVIYALCNPDYVAGPGLASHYFGIAFDVQKNGTFLETIRMNLWEGQLANLTWALEHGRILQTPALFLFGMLVGRKGLFLYSEQNEQHWLKALGISLICFFPLYGLNNMLPEFITRNAIRVPLQLIISSLSNLSFMVLLVSGLLITFYRIKDRRFLMRFTSYGKMSLTNYIGQSVIGSLLFYHWGFELGRFLGITYSFFFGILFVLLQMAFCSWWLSHFKHGPFEGLWKRLTWIGNNKRK | failed |
| GLQAEWMQMSSLGTVDAPNFIVGNPWDDKLIFKLLSGLSKPVSSYPNTFEWQCKLPAIKPKTEFQLGSKLVYVHHLLGEGAFAQVYEATQGDLNDAKNKQKFVLKVQKPANPWEFYIGTQLMERLKPSMQHMFMKFYSAHLFQNGSVLVGELYSYGTLLNAINLYKNTPEKVMPQGLVISFAMRMLYMIEQVHDCEIIHGDIKPDNFILGNGFLEQDDEDDLSAGLALIDLGQSIDMKLFPKGTIFTAKCETSGFQCVEMLSNKPWNYQIDYFGVAATVYCMLFGTYMKVKNEGGECKPEGLFRRLPHLDMWNEFFHVMLNIPDCHHLPSLDLLRQKLKKVFQQHYTNKIRALRNRLIVLLLECKRSRK | failed |
| MLRYSLLVLLGACSYGILAIFVKLAYAEGFSLGEVIGSQYLFGWIILLAITLLFSRHRVPLKQALLLFVAGTSASFTGIFYYASLKTVPASIAIILLFQFVWVGIIIEAVATKTLPSREKVISVIFLLVGTFLSSGLLEQSAGAFDTTGIILGLLSAVTFATYIFVSGKVAVEVPSLPRGVLLMTGALTLVMIVFPPTFIFNGAISQGLWKYGLGLGTFSIVIPSIAFTIGIPKIGSGLATILGAAELPVTTIMSVFVLKEAVLSSQWFGVSLILIGIAIPQIAYAMRGRYRKHHTHKKVAA | failed |
| MRSETVSTHTKPVRPEPPAPAAEVPAGAFPPGQERDHDTRPSAPPRDQSPPPAPEADSRSAARPAPPTHPGTSSTVWVRRRLARLGAQRGTTMNPVLEPLVKTVRATHPKADIRLIERAYDVAAHYHRSQKRKSGDPYITHPLAVATILAELGMQEATIAAGLLHDTVEDTEYTLDQLRSDFGDEIAELVDGVTKLDKVKYGEATQAETVRKMVVAMARDIRVLVIKLCDRLHNMRTLRYLPQAKREKKARETLEIYAPLAHRLGMNTIKWELEDLAFATLYPKRFDEIARLVAERAPRRDVYLQEVIEIVSADLREAKIKATVRGRPKHYYSIYQKMIARNVGFDEIYDLVGIRVIVDSVRDCYAALGIIHARWNPVPGRFKDYIAMPKFNMYQSLHTTVIGPEGSPVELQIRTRAMHRRAEYGIAAHWKYKEERNNGGKAKGASTDMAWLRQLIDWQQETKDPGEFLESLRFDLSVQEVFVFTPRGDVIALPQGATPVDFAYAVHTEVGHRTVGARVNGRLVPLDSELHNGETVEIITAKTDDAGPSRDWLDFVKSARARNKIRQWFTKERREAAIEQGKEAIAKVMRKQELPVQRLFTSESLIALAHDLRYRDLDALYAAVGENQISAHKVVEKLIESVGSLDNNEEDIAEATTPIRVPRKRPTGNPGVVVQGDPDVWVRLSKCCTPVPGDAIIGFVTRGAGVSVHRDDCGNVKHLDPDRLVQVEWQPTGNSMFLVALQIEALDRTRLLSDITRVLSDQHVNILSATVQTTRDRVALSRFTFEMADPAHLGHVLKAVRSVDGVYDVYRVRN | failed |
| MTDKTSLSYKDAGVDIDAGNALVGRIKGVVKKTRRPEVMGGLGGFGALCALPQKYREPVLVSGTDGVGTKLRLAMDLKRHDTIGIDLVAMCVNDLVVQGAEPLFFLDYYATGKLDVDTASAVISGIAEGCLQSGCSLVGGETAEMPGMYHGEDYDVAGFCVGVVEKSEIIDGSKVSDGDVLIALGSSGPHSNGYSLVRKILEVSGCDPQTTELDGKPLADHLLAPTRIYVKSVLELIEKVDVHAIAHLTGGGFWENIPRVLPDNTQAVIDESSWQWPEVFNWLQTAGNVEHHEMYRTFNCGVGMIIALPAPEVDKALALLNANGENAWKIGIIKASDSEQRVVIE | not failed |
| MQDSSSQHEPLWDRFGDLTVWKRGDQRAPHKPLLILYALGRLAQGDRWLRFSDIEEDLTDLLIEFGPPRQSHHPEYPFWHLRSDGVWVVPEADVLEMRQSASNPPKTELREKEARGGFSDDIHQAFRNDSELRRGIARLLLSSHFPTSLHEDIATAVSLDLEGAASERRDPEFRTQVLQAYQYRCAICGFNLQLGMSGTPIGVEAAHIKWKQARGPDEISNGIALCALHHKMLDKGALHVTEDLRLFVSEAVHGSQPHLSRLQDRHGNRIHTPQRETYYPNGEVVTWHVNEVFRGPPRV | failed |
| MNIEIKDTLISEEQLQEKVKELALQIERDFEGEEIVVIAVLKGSFVFAADLIRHIKNDVTIDFISASSYGNQTETTGKVKLLKDIDVNITGKNVIVVEDIIDSGLTLHFLKDHFFMHKPKALKFCTLLDKPERRKVDLTAEYVGFQIPDEFIVGYGIDCAEKYRNLPFIASVVTEESYNLKSR | not failed |
| IEKCWTEDEVKRFVKGLRQYGKNFFRIRKELLPNKETGELITFYYYWKKT | not failed |
| MKRLIGLVIVALVLLAACGSNNDKKVTIGVASNDTKAWEKVKELAKKDDIDVEIKHFSDYNLPNKALNDGDIDMNAFQHFAFLDQYKKAHKGTKISALSTTVLAPLGIYSDKIKDVKKVKDGAKVVIPNDVSNQARALKLLEAAGLIKLKKDFGLAGTVKDITSNPKHLKITAVDAQQTARALSDVDIAVINNGVATKAGKDPKNDPIFLEKSNSDAVKPYINIVAVNDKDLDNKTYAKIVELYHSKEAQKALQEDVKDGEKPVNLSKDEIKAIETSLAK | not failed |
| MNLGAAEEESAQEIHLPADINWEMLDKSKFFVLGAALFSGVSGALYPAVLMKTRQQVCHSQGSCIKTAFTLVRHEGLRGLYRGFGTSLMGTIPARALYMTALEVTKSNVGSAAVSLGLTEAKAAAVANAVGGLSAAMAAQLVWTPVDVVSQRLMVQGSAGLVNASRCNYVNGFDAFRKIVRADGPKGLYRGFGISILTYAPSNAVWWASYSVAQRMVWGGIGCYVCKKDEESGNNSTTMKPDSKTIMAVQGVSAAIAGSVSALITMPLDTIKTRLQVLDGEDSSNNGKRGPSIGQTVRNLVREGGWTACYRGLGPRCASMSMSATTMITTYEFLKRLSAKNHDGFYSKS | failed |
